Article PMC3556572 (Biochemistry, 2012)
Read-outs that look alike come from different tables or passages of the source.

Columns and labels:
Test in all cases: co-sedimentation
[1] = target: T1, filamentous actin (F-actin), chicken skeletal muscle (chicken, UniProt P68139 1-377)
[2] = target: T1, filamentous actin (F-actin), chicken …; remark: listed apart in the source
[3] = target: T1, filamentous actin (F-actin), chicken …; remark: listed apart in the source

Row | stoichiometry N [1] | stoichiometry N [2] | fold decrease in affinity for F-actin in the presence of saturating Arg [2] | stoichiometry N [3] | Binder
1 | 0.25 cortactin per actin monomer | – | – | – | cortactin (natural protein, exhibits tyrosine phosphorylation as purified from insect cells (anti-phosphotyrosine blot); sites not mapped here) not shown
2 | 0.25 cortactin per actin monomer | 0.5 cortactin per actin monomer | – | – | cortactin W525A (natural protein, exhibits tyrosine phosphorylation as purified from insect cells (anti-phosphotyrosine blot); sites not mapped here) not shown
3 | – | – | ~3 fold | – | cortactin W525A, enzymatically dephosphorylated (natural protein, dephosphorylated with CIP (no tyrosine phosphorylation on the anti-phosphotyrosine blot)) not shown
4 | 0.25 cortactin per actin monomer | 0.5 cortactin per actin monomer | ~3 fold | – | cortactin 3YF (natural protein) not shown
5 | – | – | – | 0.5 Arg per actin monomer | Abl2/Arg (Abelson-related gene) nonreceptor tyrosine kinase (enzyme) MGQQVGRVGEAPGLQQPQPRGIRGSSAARPSGRRRDPAGRTADAGFNVFTQHDHFASCVEDGFEGDKTGGSSPEVLHRPFGCDAESQALNEAIRWSSKENLLGATESDPNLFVALYDFVASGDNTLSITKGEKLRVLGYNQNGEWSEVRSKNGQGWVPSNYITPVNSLEKHSWYHGPVSRSAAEYLLSSLINGSFLVRESESSPGQLSISLRYEGRVYHYRINTTTDSKVYVTAESRFSTLAELVHHHSTVADGLVTTLHYPAPKCNKPTVYGVSPIHDKWEMERTDITMKHKLGGGQYGEVYVGVWKKYSLTVAVKTFKEDTMEVEEFLKEAAVMKEIKHPNLVQLLGVCTLEPPFYIVTEYMPYGNLLDYLRECSREEVTAVVLLYMATQISSAMEYLEKKNFIHRDLAARNCLVGENHVVKVADFGLSRLMTGDTYTAHAGAKFPIKWTAPESLAYNTFSIKSDVWAFGVLLWEIATYGMSPYPGIDLSQVYDLLEKGYRMEQPEGCPPKVYELMRACWKWSPADRPSFAETHQAFETMFHDSSISEEVAEELGRTASSSSVVPYLPRLPLLPSKTRTLRKQGENKENLDGGLDAAESLASSSAPAGFIRSTQASSGSPALPRKQRDKSPSSLLEDAKETCFTRDRKGGFFSSFMKKRNAPTPPKRSSSFREMENQPHKKYELTGNFSPVASLQNADGFSVAPSQQEPNLVPAKCYGGSFAQRNLCADDDSGGGGGSGTAGGGWSGITGFFTPRLIKKTLGLRAGKPTASDDTSKPFPRSNSTSSMSSGLPEQDRMAMTLPRNCQRSKLQLERTVSTSSQPEENVDRANDMLPKKSEEGAAPARERPKAKLLPRGATALPLRAPDPAITESDSPGVGVAGVAAAPKGKERNGGTRLGVAGVPEDGEQLGWSSPAKAVAVLPTTHNHKVPVLISPTLKHTPADVQLIGTDSQGNKFKLLSEHQVTSSGDKDRPRRVKPKCAPPPPPVMRLLQHPSTCSDPEEEPTAPPAGQHTPETQEGGKKAAPGPVPSSGKPGRPVMPPPQVPLPTSSISPAKMANGTAGTKVALRKTKQAAEKISADKISKEALLECADLLSSAITEPVPNSQLVDTGHQLLDYCSGYVDSIPQTRNKFAFREAVSKLELSLQELQVSSTAAGVPGTNPVLNNLLSCVQEISDVVQR
